Measured values as given in US20150073033.

Assays:
[1] = target: purified GST-β-catenin (unphosphorylated) (UniProt P35222)
[2] = target: purified recombinant GST-Bub3 (wild type) (UniProt O43684)
[3] = tested on: purified recombinant His-tagged WT histone H3

Sequence of purified GST-β-catenin (unphosphorylated) (P35222 whole entry): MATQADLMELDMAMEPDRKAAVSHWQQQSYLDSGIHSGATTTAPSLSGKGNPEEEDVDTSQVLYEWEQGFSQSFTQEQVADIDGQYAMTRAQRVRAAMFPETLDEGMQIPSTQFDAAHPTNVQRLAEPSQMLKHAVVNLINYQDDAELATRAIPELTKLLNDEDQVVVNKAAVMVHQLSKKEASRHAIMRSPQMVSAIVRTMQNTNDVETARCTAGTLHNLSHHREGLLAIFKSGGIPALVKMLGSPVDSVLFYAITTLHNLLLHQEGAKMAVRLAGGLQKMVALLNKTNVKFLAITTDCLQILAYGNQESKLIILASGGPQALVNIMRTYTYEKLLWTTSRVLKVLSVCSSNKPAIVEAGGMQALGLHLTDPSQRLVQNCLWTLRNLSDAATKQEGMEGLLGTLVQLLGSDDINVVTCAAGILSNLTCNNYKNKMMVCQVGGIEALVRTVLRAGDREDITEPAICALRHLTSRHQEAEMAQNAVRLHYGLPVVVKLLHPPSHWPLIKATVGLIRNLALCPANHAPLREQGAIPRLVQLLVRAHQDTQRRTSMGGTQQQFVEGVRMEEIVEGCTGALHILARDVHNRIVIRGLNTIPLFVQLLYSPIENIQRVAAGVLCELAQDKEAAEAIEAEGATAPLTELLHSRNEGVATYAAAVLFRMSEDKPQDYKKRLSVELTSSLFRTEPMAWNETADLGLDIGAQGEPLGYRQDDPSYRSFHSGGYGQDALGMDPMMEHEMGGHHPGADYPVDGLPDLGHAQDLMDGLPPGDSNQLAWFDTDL
Sequence of purified recombinant GST-Bub3 (wild type) (O43684 whole entry): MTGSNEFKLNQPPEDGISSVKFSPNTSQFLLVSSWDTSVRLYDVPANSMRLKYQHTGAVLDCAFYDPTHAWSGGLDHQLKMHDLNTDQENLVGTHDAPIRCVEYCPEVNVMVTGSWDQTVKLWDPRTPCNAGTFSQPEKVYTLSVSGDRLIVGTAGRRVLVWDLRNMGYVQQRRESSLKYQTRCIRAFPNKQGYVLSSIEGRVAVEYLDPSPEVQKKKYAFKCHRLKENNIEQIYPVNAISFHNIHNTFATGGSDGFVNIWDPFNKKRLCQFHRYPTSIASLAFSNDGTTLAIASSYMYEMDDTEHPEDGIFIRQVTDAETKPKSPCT

Substance | in vitro protein kinase assay (Tyr and Y333 phosphorylation by immunoblot) [1] | in vitro protein kinase assay with PEP (anti-phospho-Tyr immunoblot) [2] | in vitro phosphorylation with PEP (anti-phospho-Thr and phospho-H3-T11 immunoblot) [3]
purified active c-Src | active c-Src was able to phosphorylate WT β-catenin | – | –
purified recombinant His-PKM2 (wild type) | – | PKM2, but not PKM2 K367M or PKM1, phosphorylated Bub3 | WT PKM2, but not PKM2 K367M kinase-dead mutant (Yang et al., 2011) or PKM1, phosphorylated WT histone H3 but not H3-T11A
